No end group written: not given here.
How the values were obtained:
[1] = biological target: T1, LGR8 (RXFP2) (Homo sapiens, UniProt Q8WXD0); assay: pCRE-β-gal reporter assay in HEK-293T cells expressing LGR8; type: cell-based; set-up: expressed in transfected cells; details: LGR8/pCRE-β-gal HEK-293T; for CRE activation pattern: 0.01 nM-1 μM, FIG. 6A-B
Procedure: In order to further test the activity of P59C13V (P59) (SEQ ID NO: 6), P59S-Amide (P59S) (SEQ ID NO: 1), P59C13V-Amide (P59 Amide) (SEQ ID NO: 5) and P74C13V (P74) (SEQ ID NO: 10), the following assay was performed. The assay was done to assess the ability of P59C13V (P59) (SEQ ID NO: 6), P59S-Amide (P59S) (SEQ ID NO: 1), P59C13V-Amide (P59Amide) (SEQ ID NO: 5) and P74C13V (P74) (SEQ ID NO: 10) peptides to replace H2 Relaxin or INSL3 activity in stable HEK-293T cell lines expressing the LGR7 (RXFP1) or the LGR8 (RXFP2) receptors, respectively, by assessment of the ability of these peptides to increase cAMP activity in cell lines expressing LGR7 (RXFP1) or LGR8 (RXFP2) respectively, together with pCRE-β-gal. The pCRE-β-gal assay is a standard and well established assay at the Howard Florey Institute (Melbourne, Australia) (Halls M L, Bathgate R A, Summers R J.—Comparison of signaling pathways activated by the relaxin family peptide receptors, RXFP1 and RXFP2, using reporter genes. J Pharmacol Exp Ther. 2007 January; 320(1):281-90.)
The ability of P59C13V (P59) (SEQ ID NO: 6), P59S-Amide (P59S) (SEQ ID NO: 1), P59C13V-Amide (P59Amide) (SEQ ID NO: 5) and P74C13V (P74) (SEQ ID NO: 10) to influence cAMP activity in HEK-293T LGR7/pCRE-β-gal stable or LGR8/pCRE-β-gal transfected cells was tested in parallel to H2 relaxin and INSL3 respectively, according to the protocol described in Halls M L, et al., J Pharmacol Exp Ther. 2007 January; 320(1):281-90.
The experiment was repeated at least three times. The following concentrations of each peptide were tested: 0.01 nM, 0.1 nM, 1 nM, 10 nM, 100 nM, 1 μM.
The results are presented as a percentage of INSL3 activity in LGR8/pCRE-β-gal transfected HEK-293T cells as a function of the concentration (Represented in Log [M]).

[2] = biological target: T1, LGR8 (RXFP2); assay: ACEA RT-CES cell impedance, LGR8 transfected CHO-K1 cells; type: cell-based; set-up: expressed in transfected cells; host or cells: CHO-K1 (transient); details: P74C13V 10 uM, P59C13V 10 uM, H2 Relaxin 1 uM, FIG. 14
Excerpt: ACEA RT-CES screen is a noninvasive and label-free assay for GPCRs that can be used with both engineered and nonengineered cell lines. The assay is based on using cell-electrode impedance to measure minute changes in cellular morphology as a result of ligand-dependent GPCR activation and is described in Naichen Yu, et al., Anal. Chem., 78 (1), 35-43, 2006. 10.1021/ac051695v S0003-2700(05)01695-1. The Rho family of small GTPases, which include Rho, Rac, and CDC42, are well-characterized effectors of oncogenes, growth factor and adhesion-mediated signaling pathways and are not classically thought of as being key effectors for GPCRs. Rho family GTPases participate in a number of cellular processes, the main one being regulation and maintenance of specific structures within the actin cytoskeleton framework. […] The current view of the actin cytoskeleton is that of a dynamic and plastic system that is a reflection and manifestation of the intracellular signaling and not simply a static structure designed to maintain cellular architecture. Since GPCRs couple to the actin cytoskeletal network and induce very defined morphological changes, it is possible to harness this information as a functional and biologically relevant readout for GPCRs.
ACEA biosciences; has designed electronic cell sensor arrays embedded in the bottom of the well of microtiter plates that are capable of measuring minute changes in cell morphology. The electronic sensors measure changes in cell-substrate impedance as a result of the disruption of the ionic environment due to the presence of cell and cell morphology dynamics. The main advantages offered by using cell-substrate impedance and cell morphology as a readout are that both exogenously expressed and endogenous receptors can be assayed without the need for engineering the cell with promiscuous G proteins and reporters or labeling the cells with dyes. In addition, since the readout is noninvasive, multiple stimulations with the same ligand or different ligands can be performed to assess events such as desensitization and receptor cross-talk. […]

T1 sequence (Q8WXD0 whole entry): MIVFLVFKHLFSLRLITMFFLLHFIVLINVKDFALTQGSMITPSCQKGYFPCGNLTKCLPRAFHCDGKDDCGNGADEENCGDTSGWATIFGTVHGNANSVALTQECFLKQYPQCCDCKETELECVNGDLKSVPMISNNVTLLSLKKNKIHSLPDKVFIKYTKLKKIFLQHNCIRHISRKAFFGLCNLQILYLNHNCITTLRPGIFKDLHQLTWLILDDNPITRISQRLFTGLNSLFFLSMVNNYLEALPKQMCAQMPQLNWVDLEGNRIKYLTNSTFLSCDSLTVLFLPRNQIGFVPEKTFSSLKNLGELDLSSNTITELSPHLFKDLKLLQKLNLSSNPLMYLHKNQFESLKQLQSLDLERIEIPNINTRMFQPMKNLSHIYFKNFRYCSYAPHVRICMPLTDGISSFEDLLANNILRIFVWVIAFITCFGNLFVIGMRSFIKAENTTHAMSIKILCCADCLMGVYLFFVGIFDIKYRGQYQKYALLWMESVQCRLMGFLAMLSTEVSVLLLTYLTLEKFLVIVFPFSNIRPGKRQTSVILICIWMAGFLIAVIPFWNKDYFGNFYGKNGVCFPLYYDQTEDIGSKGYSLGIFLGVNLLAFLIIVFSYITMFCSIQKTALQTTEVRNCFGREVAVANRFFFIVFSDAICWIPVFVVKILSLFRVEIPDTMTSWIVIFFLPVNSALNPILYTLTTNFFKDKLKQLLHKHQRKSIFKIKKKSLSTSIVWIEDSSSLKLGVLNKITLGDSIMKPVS

Row | CRE activation pattern [1] | CRE activation relative to INSL3 activity ([1]; FIG. 6B) | effect on cell impedance (normalized cell index) [2] | Substance
1 | less pronounced | – | – | AYAAFSV-Amide (AYAAFSV-NH2) [Peptide P59-S-Amide]
2 | – | ~25 % of INSL3 | no significant effect as compared to BSA | GQKGQVGPPGAAVRRAYAAFSV [Peptide P59C13V]
3 | very weak effect | – | – | GQKGQVGPPGAAVRRAYAAFSV-Amide (GQKGQVGPPGAAVRRAYAAFSV-NH2) [P59C13V-Amide]
4 | bell shaped response | – | strong cellular effect | GQKGQVGPPGAAVRRAYAAFSVGRRAYAAFSV-OH [Peptide P74C13V]
5 | – | – | strong cellular effect | H2 Relaxin: H2 Relaxin (ACS), positive control, known ligand of LGR7 (RXFP1) [reference compound]

Reference: patent publication US8492329B2, “Bioactive peptides and methods of using same” (Compugen Ltd., priority 2007, dated 2013)
